From article PMC3086721 (Biochemical and biophysical research communications, 2011)
Where two headings read alike, the source gives them in different places. One block for each binder: values may come before it.

Experiments:
Wild-type ubiquitin [1] = target: T1, Wild-type ubiquitin (UniProt P0CG48 1-76); assay: NMR titration
Wild-type ubiquitin [2] = target: T1, Wild-type ubiquitin; assay: NMR titration; remark: listed apart in the source

Kd (Wild-type ubiquitin [1]): ~1200 µM
Binder: GAPVSSPEYTKKIENLCAMGFDRNAVIVALSSKSWDVETATELLLSN (domain or fragment, UniProt P61086 154-200, looked up) [E2-25K UBA domain (residues G154-N200)]

Kd (Wild-type ubiquitin [2]): ~1000 µM
B1: Full-length E2-25K (enzyme, UniProt P61086 1-200, looked up)
chain: MANIAVQRIKREFKEVLKSEETSKNQIKVDLVDENFTELRGEIAGPPDTPYEGGRYQLEIKIPETYPFNPPKVRFITKIWHPNISSVTGAICLDILKDQWAAAMTLRTVLLSLQALLAAAEPDDPQDAVVANQYKQNPEMFKQTARLWAHVYAGAPVSSPEYTKKIENLCAMGFDRNAVIVALSSKSWDVETATELLLSN
